This test has as its target T1, PAR1 (Homo sapiens, UniProt P25116).
T1 construct: endogenous in cells; host or cells: THP1-null (wildtype) cells, PMA-differentiated
T1 sequence (P25116 22-425): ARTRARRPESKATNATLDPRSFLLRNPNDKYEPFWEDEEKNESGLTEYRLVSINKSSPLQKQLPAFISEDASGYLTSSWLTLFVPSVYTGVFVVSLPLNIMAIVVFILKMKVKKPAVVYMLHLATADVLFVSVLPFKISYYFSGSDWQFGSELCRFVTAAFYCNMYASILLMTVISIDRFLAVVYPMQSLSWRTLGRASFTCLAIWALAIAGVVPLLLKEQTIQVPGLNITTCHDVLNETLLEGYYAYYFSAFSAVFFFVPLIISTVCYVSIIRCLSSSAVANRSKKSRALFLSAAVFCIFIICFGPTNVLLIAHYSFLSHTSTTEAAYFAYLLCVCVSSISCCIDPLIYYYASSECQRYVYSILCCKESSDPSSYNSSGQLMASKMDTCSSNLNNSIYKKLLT
Kind of test: Caspase 1 activity assay in THP1 cells after inhibition of PAR1 (WEDE15, ATAP2, SCH79797). It counts as cell-based. The following applies: TR47 50 μM or P3R 50 μM; for effect of PAR1 blocking antibody ATAP2 on reduction of caspase 1 activity: ATAP2 10 μg/mL for 15 minutes before APC 4 μg/mL; for effect of PAR1 small molecule antagonist SCH79797 on reduction of caspase 1 activity: SCH79797 20 μM for 20 minutes before APC 4 μg/mL; for effect of PAR1 blocking antibody WEDE15 on reduction of caspase 1 activity: WEDE15 20 μg/mL for 15 minutes before APC 4 μg/mL. On the procedure:
THP1 or (A) NLRP3 deficient cells (THP1-defNLRP3) cells were plated at a final concentration of 1×10^6/mL in 96 well plates and incubated with PMA (0.5 μM) for 3 hours 37° C. in supplemented RPMI. Media was subsequently changed every 24 hours for 3 days. In brief, selected wells were treated with APC (4 μg/mL), TR47 (50 μM) or P3R (50 μM) for 1 hour, washed with DPBS, and incubated with LPS (1 μg/mL) for 3 hours at 37° C. in serum-free RPMI. After a DPBS wash, cells were incubated with ATP (5 mM) in the presence or absence of 10 μM YVAD (caspase 1 inhibitor) or 2.5 μM ZVAD (pan-caspase inhibitor) for 45 minutes at 37° C. In (B), after PMA differentiation, select wells were treated with APC (4 μg/mL), TR47 (50 μM) or P3R (50 μM) for 1 hour, washed with DPBS, and incubated with LPS (1 μg/mL) for 3 hours at 37° C. in serum-free RPMI. Cells were washed with DPBS before being treated with the NLRP3 inhibitor MCC950 (10 μM) or DMSO for 30 minutes. Again, cells were washed with DPBS and incubated with ATP (5 mM) in the presence or absence of 10 μM YVAD (caspase 1 inhibitor) or 2.5 μM ZVAD (pan-caspase inhibitor) for 45 minutes prior to performing the caspase 1 activity following manufacturer's directions measuring luminescence. In (C-F) prior to APC, TR47 or P3R treatment, cells were incubated with antibodies or inhibitors. In (C) cell were incubated with the blocking EPCR antibody, RCR-252 (50 μg/mL); (D) mouse monoclonal antibody to PAR3, clone 19b (clonel9b; 25 μg/mL) for 30 minutes. In (E) cells were treated with either mouse monoclonal antibodies to PAR1, WEDE15 (20 μg/mL) or ATAP2 (10 μg/mL) for 15 minutes. In (F) cells were treated with the small molecule PAR1 inhibitor, SCH79797 (SCH; 20 μM) for 20 minutes. Following antibody or small molecule treatments (C-F) selected wells were treated with APC (4 μg/mL), TR47 (50 μM) or P3R (50 μM) for 1 hour, washed with DPBS, and incubated with LPS (1 μg/mL) for 3 hours at 37° C. in serum-free RPMI. After a DPBS wash, cells were incubated with ATP (5 mM) in the presence or absence of 10 μM YVAD (caspase 1 inhibitor) or 2.5 μM ZVAD (pan-caspase inhibitor) for 45 minutes at 37° C., prior to performing the caspase 1 activity assay following manufacturer's directions measuring luminescence (relative luminescent units, RLU). (A-F) Data points represent mean±SD of at least 3 independent experiments. *P<0.05 (vs. LPS+ATP); #P<0.05 (vs. LPS+ATP & APC, TR47 or P3R); ##P<0.005 (vs. LPS+ATP & APC, TR47 or P3R); n.s. not significant.
Caspase 1 assay. THP1-null (wildtype cells) or NLRP3-deficient THP1-(defNLRP3) cells were plated at a final concentration of 1×10^6/mL in 96 well plates and incubated with PMA (0.5 μM) for 3 hours 37° C. in supplemented RPMI. Media was subsequently changed every 24 hours for 3 days. Various subsets of wells were selected and cells were treated for 60 minutes at 37° C. in serum-free RPMI with various concentrations of APC, TR47 or P3R. Following DPBS wash, cells were incubated with LPS (lipopolysaccharide) (1 μg/mL) for 3 hours at 37° C. in serum-free RPMI to prime the inflammasome. After a DPBS wash, to fully activate caspase 1 activity, cells were incubated with ATP (5 mM), in the presence or absence of 10 μM YVAD (caspase 1 inhibitor), and 2.5 μM ZVAD (pan-caspase inhibitor) for 45 minutes at 37° C., prior to performing the caspase 1 activity assay following the manufacturer's (Promega) directions; caspase 1 activity was monitored as luminescence changes due to substrate hydrolysis and reported as relative luminescent units (RLU).^15 In select experiments, caspase 1 activity of experimental conditions were normalized to YVAD (caspase 1 inhibitor) conditions and expressed as normalized caspase 1 activity.

“GAPPNSFEEFPFSALEGWTGATIT [P3R, PAR3-derived 24-mer peptide]”: the “effect of PAR1 blocking antibody ATAP2 on reduction of caspase 1 activity” value is given as “None of the PAR1-targeted inhibitors statistically significantly reduced the anti-inflammatory activity”, the “effect of PAR1 small molecule antagonist SCH79797 on reduction of caspase 1 activity” value is recorded as “None of the PAR1-targeted inhibitors statistically significantly reduced the anti-inflammatory activity” and the “effect of PAR1 blocking antibody WEDE15 on reduction of caspase 1 activity” value is on record as “None of the PAR1-targeted inhibitors statistically significantly reduced the anti-inflammatory activity”.

For “NPNDKYEPFWEDEEKNESGL [TR47, PAR1-derived 20 amino acid peptide]”, the “effect of PAR1 blocking antibody ATAP2 on reduction of caspase 1 activity” value is recorded as “not by ATAP2”; the “effect of PAR1 small molecule antagonist SCH79797 on reduction of caspase 1 activity” value is “inhibited by SCH79797 and WEDE15”; the “effect of PAR1 blocking antibody WEDE15 on reduction of caspase 1 activity” value was “inhibited by SCH79797 and WEDE15”.

The values above are taken from patent publication US20220313780A1, “METHODS AND COMPOSITIONS FOR TREATING INFLAMMATORY CONDITIONS” (THE SCRIPPS RESEARCH INSTITUTE, priority 2019, published 2022).
